Biological target: the molecule itself
Experiment: SEC

B1: EncM (as used for size exclusion chromatography) (enzyme, Streptomyces maritimus, UniProt Q9KHK2 1-464, looked up)
chain: MQFPQLDPATLAAFSAAFRGELIWPSDADYDEARRIWNGTIDRRPALIARCTSTPDVVAAVSFARKSGLLVAVRGGGHSMAGHSVCDGGIVIDLSLMNSIKVSRRLRRARAQGGCLLGAFDTATQAHMLATPAGVVSHTGLGGLVLGGGFGWLSRKYGLSIDNLTSVEIVTADGGVLTASDTENPDLFWAVRGGGGNFGVVTAFEFDLHRVGPVRFASTYYSLDEGPQVIRAWRDHMATAPDELTWALYLRLAPPLPELPADMHGKPVICAMSCWIGDPHEGERQLESILHAGKPHGLTKATLPYRALQAYSFPGAVVPDRIYTKSGYLNELSDEATDTVLEHAADIASPFTQLELLYLGGAVARVPDDATAYPNRQSPFVTNLAAAWMDPTEDARHTAWAREGYRALAGHLSGGYVNFMNPGEADRTREAYGAAKFERLQGVKAKYDPTNLFRLNQNIPPSSP
modifications: FAD covalently linked to His78 via the C8-methyl of the isoalloxazine ring
Question: B1 was tested. Which “stoichiometry N” value did it give?
Answer: The value was 2.
